Data: paper PMC9482650, “Quantitative fragmentomics allow affinity mapping of interactomes” (Nature Communications, 2022)

T1: MPDZ_6, O75970
T1 sequence (O75970 1003-1099, limits assumed, looked up): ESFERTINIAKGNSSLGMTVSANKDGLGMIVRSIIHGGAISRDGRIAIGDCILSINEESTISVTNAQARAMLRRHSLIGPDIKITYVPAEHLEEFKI

T2: PDZD2_4, O15018
T2 sequence (O15018 723-823, limits assumed, looked up): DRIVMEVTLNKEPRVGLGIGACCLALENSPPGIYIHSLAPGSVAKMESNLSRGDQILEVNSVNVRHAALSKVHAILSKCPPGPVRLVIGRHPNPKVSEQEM

T3: LNX2_4, Q8N448
T3 sequence (Q8N448 595-690, limits assumed, looked up): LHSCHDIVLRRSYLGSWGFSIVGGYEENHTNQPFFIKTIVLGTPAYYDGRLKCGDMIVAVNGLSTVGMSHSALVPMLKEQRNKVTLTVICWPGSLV

T4: PDZD4, Q76G19
T4 sequence (Q76G19 125-224, limits assumed, looked up): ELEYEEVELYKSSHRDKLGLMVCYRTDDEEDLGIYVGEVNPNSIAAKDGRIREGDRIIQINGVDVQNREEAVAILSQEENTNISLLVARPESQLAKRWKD

T5: PDZD8, Q8NEN9
T5 sequence (Q8NEN9 361-459, limits assumed, looked up): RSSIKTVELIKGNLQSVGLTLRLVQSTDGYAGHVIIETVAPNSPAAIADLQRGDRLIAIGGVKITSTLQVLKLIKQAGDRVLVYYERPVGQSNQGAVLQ

T6: PARD6B, Q9BYG5
T6 sequence (Q9BYG5 152-260, limits assumed, looked up): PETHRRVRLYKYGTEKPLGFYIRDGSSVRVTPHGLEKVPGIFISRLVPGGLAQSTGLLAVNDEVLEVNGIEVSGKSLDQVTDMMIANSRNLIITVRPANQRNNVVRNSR

T7: GRIP1_1, Q9Y3R0
T7 sequence (Q9Y3R0 48-146, limits assumed, looked up): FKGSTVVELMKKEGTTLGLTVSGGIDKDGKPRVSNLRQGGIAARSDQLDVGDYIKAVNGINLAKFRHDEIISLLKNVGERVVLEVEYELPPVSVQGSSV

T8: PTPN4, P29074
T8 sequence (P29074 512-599, limits assumed, looked up): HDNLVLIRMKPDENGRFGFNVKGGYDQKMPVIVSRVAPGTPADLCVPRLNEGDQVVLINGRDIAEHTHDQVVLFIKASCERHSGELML

T9: NHERF1_1, O14745
T9 sequence (O14745 9-104, limits assumed, looked up): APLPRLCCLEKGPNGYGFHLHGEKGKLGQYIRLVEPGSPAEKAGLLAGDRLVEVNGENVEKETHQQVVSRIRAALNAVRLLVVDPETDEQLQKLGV

T10: MPP1, Q00013
T10 sequence (Q00013 66-162, limits assumed, looked up): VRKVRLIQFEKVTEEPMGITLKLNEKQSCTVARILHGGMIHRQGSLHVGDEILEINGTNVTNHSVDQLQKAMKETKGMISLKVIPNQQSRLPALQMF

T11: DVL1, O14640
T11 sequence (O14640 246-333, limits assumed, looked up): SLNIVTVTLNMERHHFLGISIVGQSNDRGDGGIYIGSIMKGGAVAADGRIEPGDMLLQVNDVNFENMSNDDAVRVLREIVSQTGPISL

T12: MLLT4, P55196
T12 sequence (P55196 1002-1103, limits assumed, looked up): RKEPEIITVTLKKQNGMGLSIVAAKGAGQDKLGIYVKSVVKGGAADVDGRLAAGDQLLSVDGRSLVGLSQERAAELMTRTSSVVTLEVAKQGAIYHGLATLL

T13: SHANK2, Q9UPX8
T13 sequence (Q9UPX8 621-730, limits assumed, looked up): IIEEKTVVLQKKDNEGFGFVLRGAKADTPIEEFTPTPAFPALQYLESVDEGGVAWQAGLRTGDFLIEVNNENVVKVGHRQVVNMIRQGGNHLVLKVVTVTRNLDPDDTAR

T14: SHANK3, Q9BYB0
T14 sequence (Q9BYB0 641-750, limits assumed, looked up): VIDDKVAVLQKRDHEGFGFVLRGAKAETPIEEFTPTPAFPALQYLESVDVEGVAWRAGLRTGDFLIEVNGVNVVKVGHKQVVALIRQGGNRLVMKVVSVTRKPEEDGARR

T15: PREX2_2, Q70Z35
T15 sequence (Q70Z35 672-764, limits assumed, looked up): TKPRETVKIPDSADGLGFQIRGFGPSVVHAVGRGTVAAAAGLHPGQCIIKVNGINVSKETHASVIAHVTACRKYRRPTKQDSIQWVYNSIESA

B1: HPV51-E6, P26554 (peptide)
chain: RTRQRNETQV
B2: ASIC3, Q9UHC3 (peptide)
chain: HRTCYLVTQL

Key:
Assay in all cases: holdup assay
Parameters in all cases: key: below the threshold = too weak to quantify, mostly under pKd 3.1 to 4
Conditions in all cases: plain residues with an end cap or a label only (N-terminal biotin on a linker: ttds)
MPDZ_6, O75970 = biological target: T1, MPDZ_6, O75970
PDZD2_4, O15018 = biological target: T2, PDZD2_4, O15018
SCRIB_4, Q14160 = biological target: SCRIB_4, Q14160
Chain of SCRIB_4, Q14160 (Q14160 1095-1204): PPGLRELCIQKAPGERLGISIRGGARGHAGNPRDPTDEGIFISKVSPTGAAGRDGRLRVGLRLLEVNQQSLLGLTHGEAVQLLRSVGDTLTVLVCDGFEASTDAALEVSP

LNX2_4, Q8N448 = biological target: T3, LNX2_4, Q8N448
PDZD4, Q76G19 = biological target: T4, PDZD4, Q76G19
MAGI1_4, Q96QZ7 = biological target: MAGI1_4, Q96QZ7
Chain of MAGI1_4, Q96QZ7 (Q96QZ7 other isoform, or with tags, fused parts or gaps): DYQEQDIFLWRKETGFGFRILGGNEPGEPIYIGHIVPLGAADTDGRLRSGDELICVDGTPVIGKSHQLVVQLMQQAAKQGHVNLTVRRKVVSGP

PDZD8, Q8NEN9 = biological target: T5, PDZD8, Q8NEN9
PARD6B, Q9BYG5 = biological target: T6, PARD6B, Q9BYG5
GRIP1_1, Q9Y3R0 = biological target: T7, GRIP1_1, Q9Y3R0
PTPN4, P29074 = biological target: T8, PTPN4, P29074
NHERF1_1, O14745 = biological target: T9, NHERF1_1, O14745
PDZD9, Q8IXQ8 = biological target: PDZD9, Q8IXQ8
Chain of PDZD9, Q8IXQ8 (Q8IXQ8 23-120): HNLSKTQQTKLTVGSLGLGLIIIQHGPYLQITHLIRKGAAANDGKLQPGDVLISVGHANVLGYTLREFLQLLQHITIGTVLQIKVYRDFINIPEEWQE

MPP1, Q00013 = biological target: T10, MPP1, Q00013
PREX1_1, Q8TCU6 = biological target: PREX1_1, Q8TCU6
Chain of PREX1_1, Q8TCU6 (Q8TCU6 608-718): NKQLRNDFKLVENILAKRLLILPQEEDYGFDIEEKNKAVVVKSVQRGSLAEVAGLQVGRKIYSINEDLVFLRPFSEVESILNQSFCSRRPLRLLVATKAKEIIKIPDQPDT

DVL1, O14640 = biological target: T11, DVL1, O14640
RIMS1, Q86UR5 = biological target: RIMS1, Q86UR5
Chain of RIMS1, Q86UR5 (Q86UR5 584-692): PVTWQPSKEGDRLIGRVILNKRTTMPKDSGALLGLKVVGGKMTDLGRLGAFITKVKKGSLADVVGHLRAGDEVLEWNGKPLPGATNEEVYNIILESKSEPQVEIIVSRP

TJP1_1, Q07157 = biological target: TJP1_1, Q07157
Chain of TJP1_1, Q07157 (Q07157 18-120): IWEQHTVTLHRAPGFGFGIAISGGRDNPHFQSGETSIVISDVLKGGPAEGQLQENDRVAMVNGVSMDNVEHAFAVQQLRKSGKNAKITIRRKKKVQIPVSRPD

MLLT4, P55196 = biological target: T12, MLLT4, P55196
SHANK2, Q9UPX8 = biological target: T13, SHANK2, Q9UPX8
IL16_2, Q14005 = biological target: IL16_2, Q14005
Chain of IL16_2, Q14005 (Q14005 350-450): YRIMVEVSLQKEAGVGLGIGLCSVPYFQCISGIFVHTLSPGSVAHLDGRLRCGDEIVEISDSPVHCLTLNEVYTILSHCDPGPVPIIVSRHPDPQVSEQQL

SHANK3, Q9BYB0 = biological target: T14, SHANK3, Q9BYB0
PREX2_2, Q70Z35 = biological target: T15, PREX2_2, Q70Z35

Binder	pKd (MPDZ_6, O75970)	pKd (PDZD2_4, O15018)	pKd (SCRIB_4, Q14160)	pKd (LNX2_4, Q8N448)	pKd (PDZD4, Q76G19)	pKd (MAGI1_4, Q96QZ7)	pKd (PDZD8, Q8NEN9)	pKd (PARD6B, Q9BYG5)	pKd (GRIP1_1, Q9Y3R0)	pKd (PTPN4, P29074)	pKd (NHERF1_1, O14745)	pKd (PDZD9, Q8IXQ8)	pKd (MPP1, Q00013)	pKd (PREX1_1, Q8TCU6)	pKd (DVL1, O14640)	pKd (RIMS1, Q86UR5)	pKd (TJP1_1, Q07157)	pKd (MLLT4, P55196)	pKd (SHANK2, Q9UPX8)	pKd (IL16_2, Q14005)	other results
B1	below the threshold	4.34	4.27	below the threshold	below the threshold	below the threshold	below the threshold	below the threshold	below the threshold	below the threshold	below the threshold	below the threshold	5.81	below the threshold	4.86	below the threshold	below the threshold	below the threshold	below the threshold	below the threshold	pKd (SHANK3, Q9BYB0): below the threshold; pKd (PREX2_2, Q70Z35): below the threshold
B2	below the threshold	below the threshold	below the threshold	below the threshold	below the threshold	below the threshold	below the threshold	below the threshold	4.31	below the threshold	5.23	below the threshold	4.4	3.99	below the threshold	below the threshold	4.17	below the threshold	4.93	below the threshold	pKd (SHANK3, Q9BYB0): 5.52; pKd (PREX2_2, Q70Z35): below the threshold
